T1: C-terminal FH1-FH2 FMN1 (amino acids 870–1466) (mouse, UniProt Q05860 870-1466)
T1 sequence (looked up): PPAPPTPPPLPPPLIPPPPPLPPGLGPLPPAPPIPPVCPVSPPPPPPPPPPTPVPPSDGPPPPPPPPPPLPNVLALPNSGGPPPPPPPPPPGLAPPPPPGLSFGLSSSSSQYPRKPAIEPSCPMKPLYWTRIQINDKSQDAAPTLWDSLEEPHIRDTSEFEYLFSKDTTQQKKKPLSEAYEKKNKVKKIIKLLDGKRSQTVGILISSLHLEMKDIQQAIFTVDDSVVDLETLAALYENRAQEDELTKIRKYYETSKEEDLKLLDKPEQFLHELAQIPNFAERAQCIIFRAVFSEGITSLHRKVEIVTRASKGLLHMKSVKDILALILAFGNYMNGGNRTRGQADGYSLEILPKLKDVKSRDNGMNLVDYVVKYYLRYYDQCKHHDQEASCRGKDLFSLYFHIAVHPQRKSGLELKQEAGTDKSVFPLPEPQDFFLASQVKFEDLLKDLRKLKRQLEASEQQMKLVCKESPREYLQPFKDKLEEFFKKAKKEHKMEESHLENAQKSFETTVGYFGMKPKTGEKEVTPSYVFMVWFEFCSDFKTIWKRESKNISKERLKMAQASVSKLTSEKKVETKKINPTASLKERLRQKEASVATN

B1: N-terminal WW1-WW2 FNBP4 (amino acids 214–629) (domain or fragment, UniProt Q8N3X1 214-629, looked up)
chain: GIEMGDWQEVWDENTGCYYYWNTQTNEVTWELPQYLATQVQGLQHYQPSSVPGAETSFVVNTDIYSKEKTISVSSSKSGPVIAKREVKKEVNEGIQALSNSEEEKKGVAASLLAPLLPEGIKEEEERWRRKVICKEEPVSEVKETSTTVEEATTIVKPQEIMLDNIEDPSQEDLCSVVQSGESEEEEEQDTLELELVLERKKAELRALEEGDGSVSGSSPRSDISQPASQDGMRRLMSKRGKWKMFVRATSPESTSRSSSKTGRDTPENGETAIGAENSEKIDENSDKEMEVEESPEKIKVQTTPKVEEEQDLKFQIGELANTLTSKFEFLGINRQSISNFHVLLLQTETRIADWREGALNGNYLKRKLQDAAEQLKQYEINATPKGWSCHWDRDHRRYFYVNEQSGESQWEFPDG

Experiments:
[1] = target: T1, C-terminal FH1-FH2 FMN1 (amino acids …); experiment: SPR
[2] = target: B1; experiment: SPR

| Binder | Kd [1] | koff [1] | kon [1] | Kd [2] | koff [2] | kon [2] |
| --- | --- | --- | --- | --- | --- | --- |
| WW1 FNBP4 (amino acids 214–430) (domain or fragment, UniProt Q8N3X1 214-430, looked up) GIEMGDWQEVWDENTGCYYYWNTQTNEVTWELPQYLATQVQGLQHYQPSSVPGAETSFVVNTDIYSKEKTISVSSSKSGPVIAKREVKKEVNEGIQALSNSEEEKKGVAASLLAPLLPEGIKEEEERWRRKVICKEEPVSEVKETSTTVEEATTIVKPQEIMLDNIEDPSQEDLCSVVQSGESEEEEEQDTLELELVLERKKAELRALEEGDGSVSG | 2 nM | 0.00127 s⁻¹ | 637000 M⁻¹ s⁻¹ |  |  |  |
| B1 | 1.84 nM | 0.000571 s⁻¹ | 310000 M⁻¹ s⁻¹ |  |  |  |
| FH1 FMN1 (amino acids 870–970) (domain or fragment, mouse, UniProt Q05860 870-970, looked up) PPAPPTPPPLPPPLIPPPPPLPPGLGPLPPAPPIPPVCPVSPPPPPPPPPPTPVPPSDGPPPPPPPPPPLPNVLALPNSGGPPPPPPPPPPGLAPPPPPGL |  |  |  | 0.56 nM | 0.0107 s⁻¹ | 1.94e+07 M⁻¹ s⁻¹ |
